Measurements as given in patent publication US20250243287A1 (SHENGHE CHINA BIOPHARMACEUTICAL, published 2025).
Residue numbers refer to the chain shown, from its start.

B1: Ms-8 (antibody, V domains shown)
VH: EVQLVETGGGLVQPKGSLKLSCAASGFTFNTYAMNWVRQTPEKGLEWVARIRTKSNNYATSYADSVKDRFTISRYDSQNMLYLQMNNLKTEDTAMYYCVRGGYGIRGDYAMDYWGQGTSVTVSS
VL: DIVMTQAAPSVPVTPGESVSISCRSTKSLLHSNGNTYLYWFLQRPGQSPQLLIYRMSNLASGVPDRFSGSGSGTTFTLRISRVEAEDVGVYYCMQHLEYPFTFGSGTKLEIK
notes: Mouse hybridoma antibody; also called mouse-derived anti-CCR8 antibody Ms-8
B2: Ms-2 (antibody, V domains shown)
VH: QVQLQQSGAELARPGASVTLSCKASGYTFTDYEMHWVKQTPVRGLEWIGAIDPETGATAYNQKFKGKATLTADKSSNTAYMELRRLTSEDSAVYYCKSRAGGRGRFAYWGQGTLVTVSA
VL: DVVMTQTPLSLPVRLGDQASISCRSSQSLVHSSGNTYLHWYLQKSGQSPKLLIYKVSNRFSGVPDRFSGSGSGTDFTLKISRVEAEDLGVYFCSQTTHVPYTFGGGTKLEIK
notes: Mouse hybridoma antibody; also called mouse-derived anti-CCR8 antibody Ms-2
B3: chimeric antibody CH-2 (antibody, V domains shown)
VH: B2 VH
VL: B2 VL
notes: Variable domains of Ms-2 in a human IgG framework, expressed in CHO cells
B4: Hu-2-Z5 (antibody, V domains shown)
VH: QVQLVQSGAEVKKPGASVKVSCKASGYTFTDYEMHWVRQAPGQGLEWMGAIDPETGATAYNQKFKGRVTLTADTSISTAYMELSRLRSDDTVVYYCASRAGGRGRFAYWGQGTLVTVSS
VL: EVVMTQSPGTLSLSPGERATLSCRSSQSLVHSSGNTYLHWYQQKPGQSPRLLIYKVSNRFSGIPDRFSGSGSGTDFTLTISRLEPEDFAVYFCSQTTHVPYTFGGGTKLELK
notes: Humanized from CH-2; also called humanized antibody Hu-2-Z5
B5: Hu-2-Z11 (antibody, V domains shown)
VH: B4 VH with G42V, Q43R, A97K
VL: B4 VL
notes: Humanized from CH-2; also called humanized antibody Hu-2-Z11
B6: Hu-2-Z10 (antibody, V domains shown)
VH: B4 VH with G42V, Q43R, A97K
VL: B4 VL with V2I, M4L, S48A, F92Y
notes: Humanized from CH-2; also called humanized antibody Hu-2-Z10
B7: Hu-2-Z4 (antibody, V domains shown)
VH: B4 VH
VL: B4 VL with V2I, M4L, S48A, F92Y
notes: Humanized from CH-2; also called humanized antibody Hu-2-Z4
B8: Hu-2-Z8 (antibody, V domains shown)
VH: B4 VH with A97K
VL: B4 VL
notes: Humanized from CH-2; also called humanized antibody Hu-2-Z8
B9: Hu-2-Z3 (antibody, V domains shown)
VH: B4 VH with L70S, A72R, S98R
VL: B4 VL with E1D, G9L, R50K
notes: Humanized from CH-2; also called humanized antibody Hu-2-Z3
B10: Hu-2-Z1 (antibody, V domains shown)
VH: B4 VH with L70S, A72R, S98R
VL: B4 VL with V2I, M4L, S48A, F92Y
notes: Humanized from CH-2; made by the aforementioned method (human IgG framework); also called humanized antibody Hu-2-Z1
B11: Hu-2-Z7 (antibody, V domains shown)
VH: B4 VH with A97K
VL: B4 VL with V2I, M4L, S48A, F92Y
notes: Humanized from CH-2; also called humanized antibody Hu-2-Z7
B12: Hu-2-Z2 (antibody, V domains shown)
VH: B4 VH with L70S, A72R, S98R
VL: B4 VL
notes: Humanized from CH-2; also called humanized antibody Hu-2-Z2
B13: Hu-2-Z9 (antibody, V domains shown)
VH: B4 VH with A97K
VL: B4 VL with E1D, G9L, R50K
notes: Humanized from CH-2; also called humanized antibody Hu-2-Z9
B14: Hu-2-Z12 (antibody, V domains shown)
VH: B4 VH with G42V, Q43R, A97K
VL: B4 VL with E1D, G9L, R50K
notes: Humanized from CH-2; also called humanized antibody Hu-2-Z12
B15: Hu-2-Z6 (antibody, V domains shown)
VH: B4 VH
VL: B4 VL with E1D, G9L, R50K
notes: Humanized from CH-2; also called humanized antibody Hu-2-Z6
B16: Hu-15-Z6 (antibody, V domains shown)
VH: EVQLVESGGGLVQPGGSLRLSCAASGFTFNTNAMNWVRQAPGKGLEWVGRIRTKSNNYATYYAESVRDRFTISRDDSKNSLYLQMNSLKTEDTAMYYCVRGGYGIRGDYTMDYWGQGTLVTVSS
VL: DIVMTQSPPTLSLSPGERATLSCRSSKSLLHSNGNTYLYWFQQKPGQSPQLLIYRMSNLASGIPDRFSGSGSGTDFTLTISRLEPEDFAVYYCMQHLEYPFTFGQGTKLEIK
notes: Humanized from CH-15; also called humanized antibody Hu-15-Z6
B17: Hu-15-Z10 (antibody, V domains shown)
VH: B16 VH with G107A
VL: B16 VL
notes: Humanized from CH-15; also called humanized antibody Hu-15-Z10
B18: Hu-15-Z4 (antibody, V domains shown)
VH: B16 VH
VL: B16 VL with D1E, M4L, P9G, F41Y, S48A, Q50R
notes: Humanized from CH-15; also called humanized antibody Hu-15-Z4
B19: Hu-15-Z7 (antibody, V domains shown)
VH: B16 VH
VL: B16 VL with N33Q
notes: Humanized from CH-15; also called humanized antibody Hu-15-Z7
B20: Hu-15-Z5 (antibody, V domains shown)
VH: B16 VH
VL: B16 VL with D1E, P9G, Q50R
notes: Humanized from CH-15; also called humanized antibody Hu-15-Z5
B21: Hu-15-Z9 (antibody, V domains shown)
VH: B16 VH with D108E
VL: B16 VL
notes: Humanized from CH-15; also called humanized antibody Hu-15-Z9
B22: Hu-15-Z8 (antibody, V domains shown)
VH: B16 VH
VL: B16 VL with G34A
notes: Humanized from CH-15; also called humanized antibody Hu-15-Z8
B23: Hu-15-Z1 (antibody, V domains shown)
VH: B16 VH with M95V, V99A
VL: B16 VL with D1E, M4L, P9G, F41Y, S48A, Q50R
notes: Humanized from CH-15; made by the aforementioned method (human IgG framework); also called humanized antibody Hu-15-Z1
B24: Hu-15-Z3 (antibody, V domains shown)
VH: B16 VH with M95V, V99A
VL: B16 VL
notes: Humanized from CH-15; also called humanized antibody Hu-15-Z3
B25: Hu-15-Z2 (antibody, V domains shown)
VH: B16 VH with M95V, V99A
VL: B16 VL with D1E, P9G, Q50R
notes: Humanized from CH-15; also called humanized antibody Hu-15-Z2
B26: Ms-15 (antibody, V domains shown)
VH: B1 VH with Y32N, T40A, E42G, A49G, S61Y, K67R, N79G, A110T
VL: B1 VL with T26S, T75A
notes: Mouse hybridoma antibody; also called mouse-derived anti-CCR8 antibody Ms-15
B27: Ms-1 (antibody, V domains shown)
VH: QVQLQQSGAELVRPGASVTLSCKASGYTFTAYEMHWVRQTPVNGLEWIGAIDPKTGVTAYNQKFKDKAIMTADKYSSTAYMDLRSLTSEDSAVYYCTSRAGGRGRFAYWGQGTLVTVSA
VL: B2 VL with R14S, G34A, S45P, L51V, V90L, T96S, Y101F
notes: Mouse hybridoma antibody; also called mouse-derived anti-CCR8 antibody Ms-1

What follows are binders tested against T1, human CCR8 (chemokine (C-C motif) receptor 8) (human, UniProt P51685 1-355) (assay: flow cytometry on CCR8-CHO cells).
T1 construct: whole, on cells; also called CCR8-CHO-K1 cells; CHOK1-CCR8 cells
T1 sequence (P51685 whole entry): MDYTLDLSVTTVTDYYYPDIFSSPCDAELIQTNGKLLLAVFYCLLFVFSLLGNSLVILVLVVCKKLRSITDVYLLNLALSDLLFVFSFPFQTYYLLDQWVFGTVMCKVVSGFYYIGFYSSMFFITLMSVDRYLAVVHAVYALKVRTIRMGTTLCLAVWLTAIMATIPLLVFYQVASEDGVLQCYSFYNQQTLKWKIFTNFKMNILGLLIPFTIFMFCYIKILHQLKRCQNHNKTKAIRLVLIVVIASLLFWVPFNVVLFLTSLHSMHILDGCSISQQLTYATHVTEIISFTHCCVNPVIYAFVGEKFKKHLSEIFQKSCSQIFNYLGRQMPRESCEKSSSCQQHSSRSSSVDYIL
Description: (§1) The antibody to be tested was taken as the initial concentration of 50 μg/mL and diluted 5-fold with 6 gradients. The cells CCR8-CHO-K1 in the incubator were taken out, and the cell suspension was transferred to a 15 mL centrifuge tube, centrifuged, and counted by resuspension in PBS. A blank control group (Blank), a negative control group (NC), an experimental group, a positive control group (positive control BMK derived from the 1K17 sequence of US20210277129) and the irrelevant antibody group were kept. The cell suspension was spread in a 96-well plate according to about 3×10⁵ cells/well. Centrifugation (1000 rpm, 5 min) was performed, followed by washing with PBS, re-centrifugation, and repeated twice to remove media residues. The supernatant was discarded, 100 μL of primary antibody solution and irrelevant antibody solution were added to the experimental group and irrelevant antibody group, respectively, and the cells were resuspended and incubated at room temperature for 1 h. The blank group, and the negative control group were incubated with an equal amount of PBS.
(§2) After 1 h, PBS was added to wash twice. […] After the supernatant was discarded, 120 μL of PBS was added to resuspend and sequentially flow cytometry was performed to detect the mean fluorescence intensity. […]

Binding result, binds:
B1
B2

These binders were tested against T1, human CCR8 (chemokine (C-C motif) …) (assay: flow cytometry on CCR8-CHO-K1 cells, PE anti-human IgG Fc secondary).
Description: as §1, with “The supernatant was discarded, 100 μL of primary antibody solution and irrelevant antibody solution were added to the experimental group and irrelevant antibody group, respectively, and the cells were resuspended and incubated at room temperature for 1 h. The blank group, and the negative control group were incubated with an equal amount of PBS.” left out
as §2
The binding activity of the chimeric antibodies was detected by FACs method, the secondary antibody was PE F(ab′) 2 sheep anti-human IgG Fc (Biolegend, Cat: 398004), and the assay procedure was the same as Example 6, and the results are shown in FIG. 2.

Binding result, binds:
B3

The binders below were run against T1, human CCR8 (chemokine (C-C motif) …) (assay: flow cytometry on CHOK1-CCR8 cells, steps of Example 6).

Binding result, binds:
B4
B5
B6
B7
B8
B9
B10
B11
B12
B13
B14
B15
B16
B17
B18
B19
B20
B21
B22
B23
B24
B25

Each binder was assayed against T1, human CCR8 (chemokine (C-C motif) …) (assay: flow cytometry on CCR8-CHO-K1 cells).
Description: as §1, §2

Binding result, binds:
B26
B27
